Starred links: 1 amine or outer side, 2 acyl side, 3 side chain; linkers in the order of their positions; H or OH if unused. Non-standard residues stand in square brackets, D forms with d. Groups on a side chain read outwards from the residue. No end group written: not given here. *: point of attachment. C20 diacid = O=C(O)CCCCCCCCCCCCCCCCCCC(=O)*; C18 diacid = O=C(O)CCCCCCCCCCCCCCCCC(=O)*; γGlu = O=C(O)[C@H](CCC(=O)[*:2])N[*:1]; αMeF = C[C@](N)(Cc1ccccc1)C(=O)O; AEEA = NCCOCCOCC(=O)O; Aib = CC(C)(N)C(=O)O
What was measured:
[1] = biological target: human GLP-1 receptor (hGLP-1R) (human, UniProt P43220 24-463); test: cell-based or functional assay
[2] = biological target: human glucagon receptor (hGCGR) (human, UniProt P47871 26-477); test: cell-based or functional assay
human glucagon receptor (hGCGR), sequence (P47871 26-477): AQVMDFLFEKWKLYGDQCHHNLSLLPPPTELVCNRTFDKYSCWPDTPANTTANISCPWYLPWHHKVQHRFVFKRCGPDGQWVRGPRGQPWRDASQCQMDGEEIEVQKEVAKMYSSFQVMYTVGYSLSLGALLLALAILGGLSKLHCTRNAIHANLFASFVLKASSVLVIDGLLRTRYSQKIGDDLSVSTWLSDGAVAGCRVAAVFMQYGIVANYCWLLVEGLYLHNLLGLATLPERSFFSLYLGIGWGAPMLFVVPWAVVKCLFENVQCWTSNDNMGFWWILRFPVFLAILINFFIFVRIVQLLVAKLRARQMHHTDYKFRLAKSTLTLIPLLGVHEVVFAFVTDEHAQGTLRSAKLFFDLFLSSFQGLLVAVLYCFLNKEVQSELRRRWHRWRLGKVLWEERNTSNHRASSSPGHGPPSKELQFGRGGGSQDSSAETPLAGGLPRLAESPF

Binder | hGLP-1R EC50 (pM) [1] | hGluc-R EC50 (pM) [2]
H[Aib]QGTFTSDVSK[αMeF]LETK([AEEA-AEEA-γGlu-C18 diacid])RARDFVQWLLE[Aib]G-OH [Peptide 445] | 33 pM | 684 pM
H[Aib]QGTFTSDVSK[αMeF]LDKK([AEEA-AEEA-γGlu-C18 diacid])RAQDFVRWLLE[Aib]G-NH2 (N-terminus assumed; SMILES CC(C)C[C@H](NC(=O)[C@H](Cc1c[nH]c2ccccc12)NC(=O)[C@H](CCCNC(=N)N)NC(=O)[C@@H](NC(=O)[C@H](Cc1ccccc1)NC(=O)[C@H](CC(=O)O)NC(=O)[C@H](CCC(N)=O)NC(=O)[C@H](C)NC(=O)[C@H](CCCNC(=N)N)NC(=O)[C@H](CCCCNC(=O)COCCOCCNC(=O)COCCOCCNC(=O)CC[C@H](NC(=O)CCCCCCCCCCCCCCCCC(=O)O)C(=O)O)NC(=O)[C@H](CCCCN)NC(=O)[C@H](CC(=O)O)NC(=O)[C@H](CC(C)C)NC(=O)[C@](C)(Cc1ccccc1)NC(=O)[C@H](CCCCN)NC(=O)[C@H](CO)NC(=O)[C@@H](NC(=O)[C@H](CC(=O)O)NC(=O)[C@H](CO)NC(=O)[C@@H](NC(=O)[C@H](Cc1ccccc1)NC(=O)[C@@H](NC(=O)CNC(=O)[C@H](CCC(N)=O)NC(=O)C(C)(C)NC(=O)[C@@H](N)Cc1c[nH]cn1)[C@@H](C)O)[C@@H](C)O)C(C)C)C(C)C)C(=O)N[C@@H](CC(C)C)C(=O)N[C@@H](CCC(=O)O)C(=O)NC(C)(C)C(=O)NCC(N)=O) [Peptide 442] | 19.1 pM | 35.8 pM
H[Aib]QGTFTSDVSK[αMeF]LETKRARDFVQWLLE[Aib]G-OH (not fully specified (residue 17)) [Peptide 444] | 247 pM | 1760 pM
H[Aib]QGTFTSDVSK[αMeF]LDRK([AEEA-AEEA-γGlu-γGlu-C18 diacid])RAQDFVRWLV[Aib]E-NH2 (N-terminus assumed; SMILES CC(C)C[C@H](NC(=O)[C@H](Cc1c[nH]c2ccccc12)NC(=O)[C@H](CCCNC(=N)N)NC(=O)[C@@H](NC(=O)[C@H](Cc1ccccc1)NC(=O)[C@H](CC(=O)O)NC(=O)[C@H](CCC(N)=O)NC(=O)[C@H](C)NC(=O)[C@H](CCCNC(=N)N)NC(=O)[C@H](CCCCNC(=O)COCCOCCNC(=O)COCCOCCNC(=O)CC[C@H](NC(=O)CC[C@H](NC(=O)CCCCCCCCCCCCCCCCC(=O)O)C(=O)O)C(=O)O)NC(=O)[C@H](CCCNC(=N)N)NC(=O)[C@H](CC(=O)O)NC(=O)[C@H](CC(C)C)NC(=O)[C@](C)(Cc1ccccc1)NC(=O)[C@H](CCCCN)NC(=O)[C@H](CO)NC(=O)[C@@H](NC(=O)[C@H](CC(=O)O)NC(=O)[C@H](CO)NC(=O)[C@@H](NC(=O)[C@H](Cc1ccccc1)NC(=O)[C@@H](NC(=O)CNC(=O)[C@H](CCC(N)=O)NC(=O)C(C)(C)NC(=O)[C@@H](N)Cc1c[nH]cn1)[C@@H](C)O)[C@@H](C)O)C(C)C)C(C)C)C(=O)N[C@H](C(=O)NC(C)(C)C(=O)N[C@@H](CCC(=O)O)C(N)=O)C(C)C) [Peptide 446] | 32.9 pM | 366 pM
H[Aib]QGTFTSDVSK[αMeF]LDKK([AEEA-AEEA-γGlu-C18 diacid])RARDFVRWLL[Aib]E-NH2 (N-terminus assumed; SMILES CC(C)C[C@H](NC(=O)[C@H](Cc1c[nH]c2ccccc12)NC(=O)[C@H](CCCNC(=N)N)NC(=O)[C@@H](NC(=O)[C@H](Cc1ccccc1)NC(=O)[C@H](CC(=O)O)NC(=O)[C@H](CCCNC(=N)N)NC(=O)[C@H](C)NC(=O)[C@H](CCCNC(=N)N)NC(=O)[C@H](CCCCNC(=O)COCCOCCNC(=O)COCCOCCNC(=O)CC[C@H](NC(=O)CCCCCCCCCCCCCCCCC(=O)O)C(=O)O)NC(=O)[C@H](CCCCN)NC(=O)[C@H](CC(=O)O)NC(=O)[C@H](CC(C)C)NC(=O)[C@](C)(Cc1ccccc1)NC(=O)[C@H](CCCCN)NC(=O)[C@H](CO)NC(=O)[C@@H](NC(=O)[C@H](CC(=O)O)NC(=O)[C@H](CO)NC(=O)[C@@H](NC(=O)[C@H](Cc1ccccc1)NC(=O)[C@@H](NC(=O)CNC(=O)[C@H](CCC(N)=O)NC(=O)C(C)(C)NC(=O)[C@@H](N)Cc1c[nH]cn1)[C@@H](C)O)[C@@H](C)O)C(C)C)C(C)C)C(=O)N[C@@H](CC(C)C)C(=O)NC(C)(C)C(=O)N[C@@H](CCC(=O)O)C(N)=O) [Peptide 443] | 20.6 pM | 22.4 pM

Now from value to binder:

hGLP-1R EC50 (pM) [1] | hGluc-R EC50 (pM) [2] | Binder
53.1 pM | 29 pM | H[Aib]QGTFTSDVSK[αMeF]LDKK([AEEA-AEEA-γGlu-γGlu-C18 diacid])RARDFVRWLL[Aib]E-OH (N-terminus assumed; SMILES CC(C)C[C@H](NC(=O)[C@H](Cc1c[nH]c2ccccc12)NC(=O)[C@H](CCCNC(=N)N)NC(=O)[C@@H](NC(=O)[C@H](Cc1ccccc1)NC(=O)[C@H](CC(=O)O)NC(=O)[C@H](CCCNC(=N)N)NC(=O)[C@H](C)NC(=O)[C@H](CCCNC(=N)N)NC(=O)[C@H](CCCCNC(=O)COCCOCCNC(=O)COCCOCCNC(=O)CC[C@H](NC(=O)CC[C@H](NC(=O)CCCCCCCCCCCCCCCCC(=O)O)C(=O)O)C(=O)O)NC(=O)[C@H](CCCCN)NC(=O)[C@H](CC(=O)O)NC(=O)[C@H](CC(C)C)NC(=O)[C@](C)(Cc1ccccc1)NC(=O)[C@H](CCCCN)NC(=O)[C@H](CO)NC(=O)[C@@H](NC(=O)[C@H](CC(=O)O)NC(=O)[C@H](CO)NC(=O)[C@@H](NC(=O)[C@H](Cc1ccccc1)NC(=O)[C@@H](NC(=O)CNC(=O)[C@H](CCC(N)=O)NC(=O)C(C)(C)NC(=O)[C@@H](N)Cc1c[nH]cn1)[C@@H](C)O)[C@@H](C)O)C(C)C)C(C)C)C(=O)N[C@@H](CC(C)C)C(=O)NC(C)(C)C(=O)N[C@@H](CCC(=O)O)C(=O)O) [Peptide 448]
57.3 pM | 57.8 pM | H[Aib]QGTFTSDVSK[αMeF]LDKK([AEEA-AEEA-γGlu-γGlu-C18 diacid])RAQDFVRWLLE[Aib]G-OH (N-terminus assumed; SMILES CC(C)C[C@H](NC(=O)[C@H](Cc1c[nH]c2ccccc12)NC(=O)[C@H](CCCNC(=N)N)NC(=O)[C@@H](NC(=O)[C@H](Cc1ccccc1)NC(=O)[C@H](CC(=O)O)NC(=O)[C@H](CCC(N)=O)NC(=O)[C@H](C)NC(=O)[C@H](CCCNC(=N)N)NC(=O)[C@H](CCCCNC(=O)COCCOCCNC(=O)COCCOCCNC(=O)CC[C@H](NC(=O)CC[C@H](NC(=O)CCCCCCCCCCCCCCCCC(=O)O)C(=O)O)C(=O)O)NC(=O)[C@H](CCCCN)NC(=O)[C@H](CC(=O)O)NC(=O)[C@H](CC(C)C)NC(=O)[C@](C)(Cc1ccccc1)NC(=O)[C@H](CCCCN)NC(=O)[C@H](CO)NC(=O)[C@@H](NC(=O)[C@H](CC(=O)O)NC(=O)[C@H](CO)NC(=O)[C@@H](NC(=O)[C@H](Cc1ccccc1)NC(=O)[C@@H](NC(=O)CNC(=O)[C@H](CCC(N)=O)NC(=O)C(C)(C)NC(=O)[C@@H](N)Cc1c[nH]cn1)[C@@H](C)O)[C@@H](C)O)C(C)C)C(C)C)C(=O)N[C@@H](CC(C)C)C(=O)N[C@@H](CCC(=O)O)C(=O)NC(C)(C)C(=O)NCC(=O)O) [Peptide 450]
170 pM | 667 pM | H[Aib]QGTFTSDVSK[αMeF]LDRK([AEEA-AEEA-γGlu-γGlu-C20 diacid])RAQDFVRWLV[Aib]E-NH2 (N-terminus assumed; SMILES CC(C)C[C@H](NC(=O)[C@H](Cc1c[nH]c2ccccc12)NC(=O)[C@H](CCCNC(=N)N)NC(=O)[C@@H](NC(=O)[C@H](Cc1ccccc1)NC(=O)[C@H](CC(=O)O)NC(=O)[C@H](CCC(N)=O)NC(=O)[C@H](C)NC(=O)[C@H](CCCNC(=N)N)NC(=O)[C@H](CCCCNC(=O)COCCOCCNC(=O)COCCOCCNC(=O)CC[C@H](NC(=O)CC[C@H](NC(=O)CCCCCCCCCCCCCCCCCCC(=O)O)C(=O)O)C(=O)O)NC(=O)[C@H](CCCNC(=N)N)NC(=O)[C@H](CC(=O)O)NC(=O)[C@H](CC(C)C)NC(=O)[C@](C)(Cc1ccccc1)NC(=O)[C@H](CCCCN)NC(=O)[C@H](CO)NC(=O)[C@@H](NC(=O)[C@H](CC(=O)O)NC(=O)[C@H](CO)NC(=O)[C@@H](NC(=O)[C@H](Cc1ccccc1)NC(=O)[C@@H](NC(=O)CNC(=O)[C@H](CCC(N)=O)NC(=O)C(C)(C)NC(=O)[C@@H](N)Cc1c[nH]cn1)[C@@H](C)O)[C@@H](C)O)C(C)C)C(C)C)C(=O)N[C@H](C(=O)NC(C)(C)C(=O)N[C@@H](CCC(=O)O)C(N)=O)C(C)C) [Peptide 447]
207 pM | 242 pM | H[Aib]QGTFTSDVSK[αMeF]LDTK([AEEA-AEEA-γGlu-γGlu-C20 diacid])RARDFVQWLLE[Aib]G-OH (N-terminus assumed; SMILES CC(C)C[C@H](NC(=O)[C@H](Cc1c[nH]c2ccccc12)NC(=O)[C@H](CCC(N)=O)NC(=O)[C@@H](NC(=O)[C@H](Cc1ccccc1)NC(=O)[C@H](CC(=O)O)NC(=O)[C@H](CCCNC(=N)N)NC(=O)[C@H](C)NC(=O)[C@H](CCCNC(=N)N)NC(=O)[C@H](CCCCNC(=O)COCCOCCNC(=O)COCCOCCNC(=O)CC[C@H](NC(=O)CC[C@H](NC(=O)CCCCCCCCCCCCCCCCCCC(=O)O)C(=O)O)C(=O)O)NC(=O)[C@@H](NC(=O)[C@H](CC(=O)O)NC(=O)[C@H](CC(C)C)NC(=O)[C@](C)(Cc1ccccc1)NC(=O)[C@H](CCCCN)NC(=O)[C@H](CO)NC(=O)[C@@H](NC(=O)[C@H](CC(=O)O)NC(=O)[C@H](CO)NC(=O)[C@@H](NC(=O)[C@H](Cc1ccccc1)NC(=O)[C@@H](NC(=O)CNC(=O)[C@H](CCC(N)=O)NC(=O)C(C)(C)NC(=O)[C@@H](N)Cc1c[nH]cn1)[C@@H](C)O)[C@@H](C)O)C(C)C)[C@@H](C)O)C(C)C)C(=O)N[C@@H](CC(C)C)C(=O)N[C@@H](CCC(=O)O)C(=O)NC(C)(C)C(=O)NCC(=O)O) [Peptide 449]
